Measurements taken from publication PMC6616311, “Reconstitution of Microtubule Nucleation In Vitro Reveals Novel Roles for Mzt1” (Current Biology, 2019).

B4: Alp4 (untagged) (natural protein, S. pombe, UniProt Q9Y705 1-784, looked up)
chain: MVRSISSVLAKEESENGSPIPALEEGSVYHVSLKSEGVSPFSDRIQLNYLYDGKTFSDPSNLNIHQQEACLINELLNAFMGMEGVFVHLQDMKASSEFETIIMPPSFYILPGFDLGIKDIASEMLEMGSHYLSITAFIESRSHFEYGFVNHALCAALRKFVMDYVVLIMQCENQSRIDPNFSLQTLRLYTLPTSRSLRQVYLILRDLLLSMEKNASSSDDLGLSNIDDLLEQLNEGNDISHVVNATRSKKKVCKGGQVISFLTESLTKYAGDPVARKILTYLLREASRPYTKMLNEWIHLGLVNDPYDEFMIKIHKGITSMQLDEDYTDEYWEKRYVIREDQVPPQLLDLQNKVLFAGKYLNVVLECRKGVNNLASLNAKDDTQNQLLWPSTFDDDNFTLNIMNAYVYANESLLQLLQSSQSLYAHLYSLKHYFFLDQSDFFTTFLDNAQHELRKPAKYISITKLQSQLDLALRQPGTITATDPHKEYVTVEVNQTSLIDWLMHIVSISGLEEGTSSQGNEVWNESITKQADVGNETRNFESEHNRSTQGTSKVGSDKDINGFETMQLCYKVPFPLSLILSRKAIIRYQLLFRYFLLLRHVEMQLENSWVQHSKNSAWRLNSSNAKIEQWKRNSWLLRTRMLSFVQKIIYYTTSEVIETHWGKFMGELENARTVDNLMQEHIDFLDTCLKECMLTNSRLLKVQSKLLNTCAMFASYTSTFTRSLYLLENSEESFDEGRMDKMEEILRRYEDSFSRHLKSLVNACNYFASTETAALLSLVMKLTG
notes: Alp4, S. pombe γ-TuSC protein, homolog of human GCP2; also called homolog of human GCP2; source: High Five insect cells (MultiBac baculovirus), coexpressed with partners; in lysate, and co-purified in complexes

Legend:
Alp6-MBP [1] = target: T1, Alp6-MBP (S. pombe, UniProt Q9USQ2 1-832); assay: cross-linking; cross-linking mass spectrometry of purified MGM holocomplex (from coexpression) with EDC/Sulfo-NHS, 1:2:4.4 (w/w/w), 90 min, 18°C, 40 mM K-HEPES, 300 mM NaCl, 1 mM MgCl2 pH 7.5; settings: both partners purified
T1 construct: Alp6, S. pombe γ-TuSC protein, homolog of human GCP3; also called Alp6 (homolog of human GCP3) with C-terminal MBP-6xHis tag; tagged subunit of γ-TuSC^Alp6-MBP; source: High Five insect cells (MultiBac baculovirus), coexpressed with partners; in lysate, and purified on amylose; not shown: MBP, C-terminal, kept; 6xHis, C-terminal, kept
T1 sequence (looked up): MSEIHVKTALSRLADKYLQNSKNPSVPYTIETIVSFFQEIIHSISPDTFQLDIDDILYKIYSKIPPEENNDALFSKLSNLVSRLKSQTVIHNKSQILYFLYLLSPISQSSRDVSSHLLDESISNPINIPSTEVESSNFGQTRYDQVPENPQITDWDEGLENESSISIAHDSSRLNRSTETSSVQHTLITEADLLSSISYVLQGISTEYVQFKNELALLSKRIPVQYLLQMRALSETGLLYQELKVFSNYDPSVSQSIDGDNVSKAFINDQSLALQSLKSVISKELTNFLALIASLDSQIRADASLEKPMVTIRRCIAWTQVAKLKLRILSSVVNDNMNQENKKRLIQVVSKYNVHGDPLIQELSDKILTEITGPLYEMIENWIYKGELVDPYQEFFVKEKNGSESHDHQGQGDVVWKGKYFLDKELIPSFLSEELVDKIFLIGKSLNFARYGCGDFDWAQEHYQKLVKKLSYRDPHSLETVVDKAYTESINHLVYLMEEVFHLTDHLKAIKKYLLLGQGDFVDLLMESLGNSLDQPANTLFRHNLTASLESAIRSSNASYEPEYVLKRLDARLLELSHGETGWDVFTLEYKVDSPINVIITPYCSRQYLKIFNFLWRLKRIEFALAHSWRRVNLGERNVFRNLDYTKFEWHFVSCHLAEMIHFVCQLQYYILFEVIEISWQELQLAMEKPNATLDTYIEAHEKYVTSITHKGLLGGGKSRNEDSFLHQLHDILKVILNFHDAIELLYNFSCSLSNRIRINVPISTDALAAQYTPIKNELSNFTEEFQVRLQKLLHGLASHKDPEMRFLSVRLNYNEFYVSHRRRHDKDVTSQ

Alp4 (untagged) = target: B4; assay: as above; settings: both partners purified
[2] = target: the molecule itself; assay: glycerol density-gradient centrifugation; 10-30% glycerol density gradient in HB100, 55,000 rpm, 4°C, 45 or 80 min; one affinity-purified complex alone, 100 μL at 1 mg/mL; S values against marker proteins
Alp6-MBP [3] = target: T1, Alp6-MBP; assay: pull-down; amylose resin purification via Alp6-MBP from lysates of High Five cells coexpressing Alp6-MBP, Alp4 and Gtb1, with or without Mzt1-6xHis; HB100 buffer (40 mM K-HEPES, 100 mM KCl, 1 mM EGTA, 1 mM MgCl2, 0.1 mM GTP, 1 mM DTT pH 7.5), overnight 4°C, maltose elution, SDS-PAGE; settings: partners not purified
[4] = target: the molecule itself; assay: SEC-MALS; 100 μL of 1.98 mg/mL Mzt1 on Superdex-75 10/300 GL in 100 mM Tris, 50 mM NaCl, pH 7.5, 22°C

B1: 6xHis-Mto1[bonsai] (domain or fragment, S. pombe, UniProt O94488 131-549, looked up)
chain: TTDDEQLSPVLTANQGFQSQEQYEEDSYNNYDYTSDPSSPNYISSSLDQLPHLDDEDDLQLTPIKEERNYLHSQDAPTTNALSKKISDILIPASAMKDLKDRKNALAKEFEESQPGSSLTLKEQANVIDNLRKEVFGLKLKCYFLYDQLNKFHDQEVQDIMKQNIDLKTLTMELQRAVAGYEKKISGLESRIKPDQSFNLSTPSPAPSNLITLQSRYSQALSELETTKRAFAALRKEKSKKTNYSVGAYNEDRNVLSNMLDNERREKEALLQELESLRVQLSKKVPMPAKNTDERVIETLQRSNELLRMDISMQNEALLLRKQENDRLVKQVEELTVALNSGKMNAIVEAESSKNELWDSMMVSRMKTQEQSIELTRLYKQLQDIEEDYENKLMRMEQQWREDVDQLQEYVEEITQELQ
notes: Mto1 of S. pombe (CM1-domain protein), amino acids 131-549; lacks residues 1-130 and 550-1,115; also called Mto1(131-549); source: High Five insect cells (MultiBac baculovirus), coexpressed with Mto2; in lysate, and co-purified in complexes; not shown: 6xHis, N-terminal, kept
Alp6-MBP [1]
  binding result: binds
Alp4 (untagged)
  binding result: binds

B2: Mto1/2[bonsai] complex (complex, S. pombe)
chain 1: TTDDEQLSPVLTANQGFQSQEQYEEDSYNNYDYTSDPSSPNYISSSLDQLPHLDDEDDLQLTPIKEERNYLHSQDAPTTNALSKKISDILIPASAMKDLKDRKNALAKEFEESQPGSSLTLKEQANVIDNLRKEVFGLKLKCYFLYDQLNKFHDQEVQDIMKQNIDLKTLTMELQRAVAGYEKKISGLESRIKPDQSFNLSTPSPAPSNLITLQSRYSQALSELETTKRAFAALRKEKSKKTNYSVGAYNEDRNVLSNMLDNERREKEALLQELESLRVQLSKKVPMPAKNTDERVIETLQRSNELLRMDISMQNEALLLRKQENDRLVKQVEELTVALNSGKMNAIVEAESSKNELWDSMMVSRMKTQEQSIELTRLYKQLQDIEEDYENKLMRMEQQWREDVDQLQEYVEEITQELQ
chain 2: MSEHNYQSDREVAEDPFLNYEASANQLSSNSRESTPRGSPWRAGMRSASLMTEPLEDSMYSDNNYLDNGVSFTKDENPLYSPSWPSLADANVNSMKSNNAIQEHKAAKFVSEKSLEKVSTADNNLVLQELENLRERLNQVELQLSERPSSYLGYHNNLSPYRSPNSYPSLLPSTHSPHSPAPLSTMQTALMRLRTYHPSPIILKPVEQAVNHAITLVNTSPSSVVDALCRSLAELCLGLVQEAIDASILSQQESSNSLDLVRHTPPLNYTSSVDSSPQRMASDSYGRPSLHLNDPFPSVDLQSNELSHHNVRTTLFSDDSRFHSKIHTHSTPPSQMYSAASHFRYRSDPSTRHVSNSTNKSSLHPSPTSLRVAHPIIPQRASPASQSFPSLQDTPSP
notes: Mto1 of S. pombe, amino acids 131-549 (Mto1[bonsai]); as m7; Mto2 of S. pombe; as m8; Copy numbers of the two chains in the complex are not measured here; also called 6xHis-Mto1/2[bonsai]; source: High Five insect cells (MultiBac baculovirus); coexpressed in lysate, or purified (ammonium sulfate, Ni2+ Fractogel, Superose 6); not shown: 6xHis, N-terminal, kept
[2]
  binding result: binds

B3: γ-tubulin (Gtb1), untagged (natural protein, S. pombe, UniProt P25295 1-446, looked up)
chain: MGREIITLQAGQCGNQIGSQFWQQLCLEHGIGPDGTLESFATEGVDRKDVFFYQSDDTRYIPRAILIDLEPRVVNNILSDTYGSLYNPENILITKNGGGAGNNWANGYSHAERIFEDIMDMIDREADGSDSLEGFSLLHSIAGGTGSGLGSFLLERLNDRYPKKIIQTYSVFPNSQSVSDVVVQPYNSLLALKRLTLNADSVVVLDNAALAHIAADRLHTQNPTFHQQNQLVSTVMSASTTTLRYPGYMNNDLVSIIASLIPSPRCHFLLTSYTPFTNQQVEEAKAIRKTTVLDVMRRLLLPKNQMVSVNPSKKSCFISILDIIQGEADPADVHKSLLRIRERRYASFIPWGPASIQVALSKKSPYIKTNHRVSGLMLANHTSIASLFKRTLDQYDRLRKRNAFLEQYKKEAIFEDDLNEFDSSRDVVADLINEYEACEDPNYLSL
notes: γ-tubulin Gtb1 of S. pombe; source: High Five insect cells (MultiBac baculovirus), coexpressed with partners; in lysate, and co-purified in complexes
Alp6-MBP [3]
  binding result: binds

## B4
Alp6-MBP [3]
  binding result: binds

B5: Mzt1-6xHis (natural protein, S. pombe, UniProt P0CF96 1-64, looked up)
chain: MSESTKETIEVLYEIGTLLGTELDKTTLSLCISLCENNVHPEAIAQIIREIRMAQEQTVDTEPS
notes: Mzt1 of S. pombe; also called MOZART1 homolog; source: High Five insect cells (MultiBac baculovirus); coexpressed in lysate, co-purified in complexes, or purified alone (Ni2+ IMAC, Superdex 75); not shown: 6xHis, C-terminal, kept
[4]
  stoichiometry N: 2
